Experimental data from patent publication US20250163168A1, “NOVEL ANTIBODIES AND ANTIBODY CONJUGATES FOR THE TREATMENT OF METABOLIC DISORDERS” (PFIZER INC., priority 2023, published 2025).

Molecular target: biotinylated human FcRn (hFcRn) (human) (UniProt P55899)
Assay: human FcRn affinity column, pH gradient 5.5 to 8.8; retention time relative to the assay control mAb-A (N = 2)

A hFcRN Relative Retention Time of 0.8 was found for “negative control (polyreactivity assays) (antibody)” in this work.
A hFcRN Relative Retention Time of 4.15 was found for “positive control (polyreactivity assays) (antibody)” in this work.
